In patent US20030148462A1, “Dual inhibition of sister chromatid separation at metaphase” (President and fellows of Harvard College, priority 2001, published 2003):

How the values were obtained:
[1] = biological target: T1, tagged human separase, wild type, with N-terminal ZZ-TEV4-tag (human, UniProt Q14674 1-2120); assay: affinity-purified complex from transfected 293T cells
T1 construct: It was therefore self-cleaved into about 175 and 55 kDa fragments and dephosphorylated; also called wild type separase; WT

[2] = biological target: T2, tagged human separase, wild type, with three N-terminal HA tags (human, UniProt Q14674 1-2120); assay: affinity isolation of tagged separase from metaphase-arrested transfected 293T cells, Western blot
T2 construct: also called WT; wild type separase; not shown: three HA tags fused to the amino terminus

separase = biological target: T3, separase (Homo sapiens, UniProt Q14674); assay: Re-inhibition of pre-activated separase by recombinant securin (cohesin hSCC1 cleavage); assay type: biochemical; conditions: separase 4 nM, one hour on ice
T3 construct: Full-length human separase was PCR-amplified from a human fetal thymus cDNA library; made in house
T3 sequence (Q14674 1-1486): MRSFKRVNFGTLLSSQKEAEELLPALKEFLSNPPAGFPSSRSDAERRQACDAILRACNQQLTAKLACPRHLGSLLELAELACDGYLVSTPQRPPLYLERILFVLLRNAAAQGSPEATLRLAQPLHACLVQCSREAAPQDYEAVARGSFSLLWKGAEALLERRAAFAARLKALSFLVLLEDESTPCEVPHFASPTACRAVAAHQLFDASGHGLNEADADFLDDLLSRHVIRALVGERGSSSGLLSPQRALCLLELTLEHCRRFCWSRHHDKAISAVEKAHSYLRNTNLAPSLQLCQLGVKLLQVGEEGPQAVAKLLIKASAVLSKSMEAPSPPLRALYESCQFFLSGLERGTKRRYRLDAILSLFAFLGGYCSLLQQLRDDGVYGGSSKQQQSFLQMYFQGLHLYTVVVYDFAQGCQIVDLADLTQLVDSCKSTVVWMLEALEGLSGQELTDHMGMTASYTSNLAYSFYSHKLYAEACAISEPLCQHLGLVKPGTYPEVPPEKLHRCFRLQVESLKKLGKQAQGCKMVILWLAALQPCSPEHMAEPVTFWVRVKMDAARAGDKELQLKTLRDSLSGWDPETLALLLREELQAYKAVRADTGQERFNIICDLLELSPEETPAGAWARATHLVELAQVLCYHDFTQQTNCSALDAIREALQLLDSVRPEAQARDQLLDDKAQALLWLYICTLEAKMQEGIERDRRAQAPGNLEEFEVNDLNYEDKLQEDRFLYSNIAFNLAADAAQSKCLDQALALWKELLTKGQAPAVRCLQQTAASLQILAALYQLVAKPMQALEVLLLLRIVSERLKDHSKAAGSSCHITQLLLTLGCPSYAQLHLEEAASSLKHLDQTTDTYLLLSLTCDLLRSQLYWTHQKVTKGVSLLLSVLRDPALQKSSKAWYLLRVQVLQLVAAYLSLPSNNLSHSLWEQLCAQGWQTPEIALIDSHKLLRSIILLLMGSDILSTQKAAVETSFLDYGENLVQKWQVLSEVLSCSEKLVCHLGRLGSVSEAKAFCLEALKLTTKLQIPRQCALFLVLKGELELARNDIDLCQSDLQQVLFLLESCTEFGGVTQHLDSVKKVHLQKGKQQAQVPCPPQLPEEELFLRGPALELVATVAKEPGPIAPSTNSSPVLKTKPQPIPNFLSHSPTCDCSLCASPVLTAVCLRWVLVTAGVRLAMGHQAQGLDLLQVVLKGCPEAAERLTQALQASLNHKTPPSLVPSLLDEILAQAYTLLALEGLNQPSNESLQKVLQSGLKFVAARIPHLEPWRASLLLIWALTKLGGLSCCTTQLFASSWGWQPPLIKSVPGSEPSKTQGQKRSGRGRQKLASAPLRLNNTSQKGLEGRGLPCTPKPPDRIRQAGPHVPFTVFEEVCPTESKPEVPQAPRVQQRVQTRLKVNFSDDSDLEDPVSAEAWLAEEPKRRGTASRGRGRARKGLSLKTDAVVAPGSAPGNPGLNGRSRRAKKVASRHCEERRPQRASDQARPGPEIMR
T3 sequence (Q14674 1536-2120): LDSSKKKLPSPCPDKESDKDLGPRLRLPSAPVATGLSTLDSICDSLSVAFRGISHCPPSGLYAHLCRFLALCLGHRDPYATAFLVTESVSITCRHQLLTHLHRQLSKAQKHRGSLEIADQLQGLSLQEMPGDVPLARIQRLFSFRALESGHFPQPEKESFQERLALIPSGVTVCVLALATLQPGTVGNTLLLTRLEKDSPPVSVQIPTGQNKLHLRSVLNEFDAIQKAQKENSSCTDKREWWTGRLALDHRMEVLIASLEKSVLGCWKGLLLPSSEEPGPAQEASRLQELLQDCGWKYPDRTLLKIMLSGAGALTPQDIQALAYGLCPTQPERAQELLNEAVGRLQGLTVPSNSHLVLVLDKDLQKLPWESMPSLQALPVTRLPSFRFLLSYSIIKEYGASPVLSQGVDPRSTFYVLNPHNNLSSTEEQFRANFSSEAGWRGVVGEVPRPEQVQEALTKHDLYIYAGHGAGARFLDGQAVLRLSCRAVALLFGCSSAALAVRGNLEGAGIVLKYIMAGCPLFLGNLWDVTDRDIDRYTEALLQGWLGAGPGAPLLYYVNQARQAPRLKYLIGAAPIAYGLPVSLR
Description: FIGS. 7A-7C depict the independent inhibition of separase activity by phosphorylation of separase and by binding of securin. (A) depicts a Western blot (upper panel) and cohesin^hSCC1 cleavage activity using isolated chromosomes as substrate (lower panel). Lane 2: Consecutive treatment of separase with high-Δ90 extract twice. (B) depicts separase that had been pre-activated in low-Δ90 extract that was eluted and incubated with recombinant securin (lanes 2 and 3) or reference buffer (lane 1) for one hour on ice. Subsequently, its cleavage activity towards in vitro translated ^35S-cohesin^hSCC1 was tested (upper panel). The separase concentration in each reaction was 4 nM, as estimated by Coomassie staining. To compare wild type separase with PM-2/4 mutant separase in its ability to bind securin the same experiment was repeated with PM-2/4 (lower panel). Roughly equal separase concentrations in both cases were assured by comparative immunoblotting (see FIG. 4B, lanes 15 and 17). (C) depicts a model for the dual inhibition of separase in metaphase and its activation at anaphase onset. PPase denotes an unknown protein phosphatase that is proposed to act on phosphorylated separase.
To determine whether securin can inhibit separase independent of the phosphorylation state of separase, and whether separase that has already been activated and has therefore cleaved itself be re-inhibited by either of the two inhibitory mechanisms, active separase was generated by treating a securin/separase complex with a low-Δ90 extract (L; FIG. 7) to degrade securin and dephosphorylate separase. […] Active separase on beads was then incubated with either recombinant securin or a high-Δ90 extract and assayed for its ability to cleave cohesin^hSCC1. […]

[3] = biological target: T4, catalytically inactive human separase mutant (catalytic cysteine replaced by serine), with three N-terminal … (human, UniProt Q14674 1-2120); assay: affinity isolation of tagged catalytically inactive separase (CS, lane 2) from transfected 293T cells, Western blot
T4 construct: also called CS; not shown: three HA tags fused to the amino terminus

binding result [1]: binds
binding result [2]: binds
Molar excess of securin sufficient to fully suppress cohesin hSCC1 cleavage (separase): ~2.5 fold molar excess
binding result [3]: binds
B1: human securin co-expressed with tagged separase in 293T cells (other, UniProt O95997 2-202, looked up)
chain: ATLIYVDKENGEPGTRVVAKDGLKLGSGPSIKALDGRSQVSTPRFGKTFDAPPALPKATRKALGTVNRATEKSVKTKGPLKQKQPSFSAKKMTEKTVKAKSSVPASDDAYPEIEKFFPFNPLDFESFDLPEEHQIAHLPLSGVPLMILDEERELEKLFQLGPPSPVKMPSPPWESNLLQSPSSILSTLDVELPPVCCDIDI
notes: also called associated securin
